Laboratory results taken from patent US20200079855A1 (Pfizer, published 2020).

Tests used:
[1] = target: T1, recombinant human αvβ3 integrin (human, UniProt P06756 31-992; P05106 27-718); assay: SPR (Biacore)
T1 construct: Used in ELISA and immobilised on the Biacore chip; construct not described; also called hαvβ3; AVB3

[2] = target: T2, recombinant human αvβ6 integrin (human, UniProt P06756 31-992; P18564 22-707); assay: SPR (Biacore)
T2 construct: Used in ELISA and immobilised on the Biacore chip; construct not described; also called hαvβ6; AVB6
T2 sequence (P18564 22-707 limits assumed, one chain of several): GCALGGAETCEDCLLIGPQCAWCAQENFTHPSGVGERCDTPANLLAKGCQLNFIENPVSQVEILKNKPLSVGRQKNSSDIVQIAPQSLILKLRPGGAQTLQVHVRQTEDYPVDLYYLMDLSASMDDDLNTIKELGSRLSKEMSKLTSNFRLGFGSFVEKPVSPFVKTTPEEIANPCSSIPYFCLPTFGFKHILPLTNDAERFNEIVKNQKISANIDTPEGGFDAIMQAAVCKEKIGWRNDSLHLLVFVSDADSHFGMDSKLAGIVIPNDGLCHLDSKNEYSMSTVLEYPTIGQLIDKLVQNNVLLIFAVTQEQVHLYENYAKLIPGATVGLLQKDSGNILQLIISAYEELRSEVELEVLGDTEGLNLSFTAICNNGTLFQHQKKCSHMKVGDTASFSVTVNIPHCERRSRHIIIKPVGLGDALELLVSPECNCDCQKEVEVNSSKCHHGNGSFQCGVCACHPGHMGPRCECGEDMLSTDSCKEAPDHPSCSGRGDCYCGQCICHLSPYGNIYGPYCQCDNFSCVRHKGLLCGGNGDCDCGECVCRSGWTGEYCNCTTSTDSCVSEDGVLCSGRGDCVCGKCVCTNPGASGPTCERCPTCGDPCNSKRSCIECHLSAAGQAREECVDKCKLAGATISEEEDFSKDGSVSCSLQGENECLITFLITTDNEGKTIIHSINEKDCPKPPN

[3] = target: recombinant human αvβ8 integrin (human) (UniProt P06756); assay: SPR (Biacore), additional experiments
[4] = target: T3, recombinant mouse αvβ8 integrin (mouse, UniProt P43406 31-988; Q0VBD0 22-681, limits assumed); assay: SPR (Biacore), additional experiments
T3 construct: Recombinant protein immobilised on the Biacore chip
T3 sequence (P43406 31-988 limits assumed, chain 1 of 2): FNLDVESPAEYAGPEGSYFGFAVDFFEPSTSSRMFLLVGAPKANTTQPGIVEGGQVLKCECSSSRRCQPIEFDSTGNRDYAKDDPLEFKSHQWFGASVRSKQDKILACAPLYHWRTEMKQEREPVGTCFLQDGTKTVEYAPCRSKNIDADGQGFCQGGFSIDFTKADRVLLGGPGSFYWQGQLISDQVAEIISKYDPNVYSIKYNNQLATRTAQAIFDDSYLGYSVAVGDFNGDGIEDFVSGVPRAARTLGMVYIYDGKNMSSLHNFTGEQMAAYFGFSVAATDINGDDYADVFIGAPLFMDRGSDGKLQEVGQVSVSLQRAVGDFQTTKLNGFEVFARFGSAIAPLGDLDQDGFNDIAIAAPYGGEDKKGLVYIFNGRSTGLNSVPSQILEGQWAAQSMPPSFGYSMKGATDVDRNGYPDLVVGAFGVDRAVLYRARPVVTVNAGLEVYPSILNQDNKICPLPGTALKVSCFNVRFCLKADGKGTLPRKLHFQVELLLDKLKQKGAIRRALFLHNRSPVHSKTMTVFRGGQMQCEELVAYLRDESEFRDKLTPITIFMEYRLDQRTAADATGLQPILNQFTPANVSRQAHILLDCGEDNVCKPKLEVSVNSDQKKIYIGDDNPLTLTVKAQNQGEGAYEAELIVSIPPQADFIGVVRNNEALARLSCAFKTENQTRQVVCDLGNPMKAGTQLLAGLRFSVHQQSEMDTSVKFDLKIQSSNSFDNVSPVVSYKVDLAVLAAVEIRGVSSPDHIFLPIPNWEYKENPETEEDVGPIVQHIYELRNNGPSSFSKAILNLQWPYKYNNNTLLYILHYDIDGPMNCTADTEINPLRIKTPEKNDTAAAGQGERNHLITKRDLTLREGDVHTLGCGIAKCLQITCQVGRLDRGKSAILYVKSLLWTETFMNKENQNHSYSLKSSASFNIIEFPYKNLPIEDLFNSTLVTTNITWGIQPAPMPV
T3 sequence (Q0VBD0 22-681 limits assumed, chain 2 of 2): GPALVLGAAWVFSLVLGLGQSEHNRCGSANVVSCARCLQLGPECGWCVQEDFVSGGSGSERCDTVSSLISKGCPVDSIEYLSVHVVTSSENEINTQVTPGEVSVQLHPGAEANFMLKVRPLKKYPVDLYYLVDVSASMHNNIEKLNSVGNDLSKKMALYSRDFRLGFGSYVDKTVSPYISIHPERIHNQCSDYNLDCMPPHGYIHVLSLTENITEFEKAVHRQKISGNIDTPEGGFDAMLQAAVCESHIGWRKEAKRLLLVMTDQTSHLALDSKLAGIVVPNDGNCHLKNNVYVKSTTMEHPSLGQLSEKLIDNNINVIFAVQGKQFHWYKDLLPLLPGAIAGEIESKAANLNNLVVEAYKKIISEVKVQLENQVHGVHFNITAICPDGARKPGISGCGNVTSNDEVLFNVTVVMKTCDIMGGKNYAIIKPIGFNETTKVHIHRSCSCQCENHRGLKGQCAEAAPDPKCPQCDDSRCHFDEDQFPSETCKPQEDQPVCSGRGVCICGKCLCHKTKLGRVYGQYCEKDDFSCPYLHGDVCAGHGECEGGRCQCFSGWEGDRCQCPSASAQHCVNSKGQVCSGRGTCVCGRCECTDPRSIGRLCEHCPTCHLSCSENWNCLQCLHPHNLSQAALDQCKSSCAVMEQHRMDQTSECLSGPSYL
Experimental: (§1) More specifically, recombinant αvβ8 integrin (e.g., R&D Systems) was biotin labeled via primary amines and immobilized on a Sensor Chip SA using a Biacore™ T200 instrument (GE Healthcare Life Sciences). Fab binding experiments were performed at 25° C. using a 30 μl/min flow rate in 0.01 M HEPES pH 7.4, 0.15 M NaCl, 1-2 mM MgCl₂, and 0.005% v/v surfactant P20 (HBS-P) buffer. Association was monitored for 5-10 minutes and dissociation for a further 15-20 minutes for each Fab concentration. After each injection, the chip surface was regenerated with IgG elution buffer (Thermo Fisher Scientific). All data was analyzed using the Biacore™ T200 Evaluation software. Data was dual background subtracted using the adjacent flow cell coupled with streptavidin without captured integrin, and buffer only injections. Kinetic constants for at least three experiments were obtained and reported as the mean.

[5] = target: T4, recombinant cynomolgus monkey αvβ8 integrin (cynomolgus monkey, limits assumed); assay: SPR (Biacore), additional experiments
T4 construct: Recombinant protein immobilised on the Biacore chip; also called cyno αvβ8; cynomolgus αvβ8
T4 chain 1: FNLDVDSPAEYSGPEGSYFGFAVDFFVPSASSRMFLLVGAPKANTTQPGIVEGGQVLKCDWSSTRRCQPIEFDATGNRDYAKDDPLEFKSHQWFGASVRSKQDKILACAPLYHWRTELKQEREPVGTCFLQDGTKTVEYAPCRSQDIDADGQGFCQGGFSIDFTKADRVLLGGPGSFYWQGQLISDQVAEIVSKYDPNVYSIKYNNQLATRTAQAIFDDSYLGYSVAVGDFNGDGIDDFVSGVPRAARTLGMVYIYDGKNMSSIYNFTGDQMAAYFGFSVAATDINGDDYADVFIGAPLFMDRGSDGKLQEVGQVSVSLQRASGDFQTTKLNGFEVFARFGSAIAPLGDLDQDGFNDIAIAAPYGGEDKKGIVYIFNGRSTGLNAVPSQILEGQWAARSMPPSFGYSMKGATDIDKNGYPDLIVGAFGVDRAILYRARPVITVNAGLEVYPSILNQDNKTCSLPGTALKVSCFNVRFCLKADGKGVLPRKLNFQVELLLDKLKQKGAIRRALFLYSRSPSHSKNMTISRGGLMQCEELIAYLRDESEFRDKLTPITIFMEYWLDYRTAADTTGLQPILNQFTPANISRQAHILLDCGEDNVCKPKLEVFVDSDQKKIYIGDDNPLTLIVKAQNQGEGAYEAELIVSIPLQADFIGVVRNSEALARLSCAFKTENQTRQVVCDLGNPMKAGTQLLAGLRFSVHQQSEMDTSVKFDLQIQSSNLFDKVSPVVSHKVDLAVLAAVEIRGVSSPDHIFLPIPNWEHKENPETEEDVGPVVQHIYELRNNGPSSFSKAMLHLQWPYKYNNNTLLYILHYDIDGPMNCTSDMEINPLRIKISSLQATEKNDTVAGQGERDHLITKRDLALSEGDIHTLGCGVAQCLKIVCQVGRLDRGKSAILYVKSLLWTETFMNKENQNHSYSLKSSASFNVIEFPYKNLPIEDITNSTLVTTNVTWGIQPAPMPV
T4 chain 2: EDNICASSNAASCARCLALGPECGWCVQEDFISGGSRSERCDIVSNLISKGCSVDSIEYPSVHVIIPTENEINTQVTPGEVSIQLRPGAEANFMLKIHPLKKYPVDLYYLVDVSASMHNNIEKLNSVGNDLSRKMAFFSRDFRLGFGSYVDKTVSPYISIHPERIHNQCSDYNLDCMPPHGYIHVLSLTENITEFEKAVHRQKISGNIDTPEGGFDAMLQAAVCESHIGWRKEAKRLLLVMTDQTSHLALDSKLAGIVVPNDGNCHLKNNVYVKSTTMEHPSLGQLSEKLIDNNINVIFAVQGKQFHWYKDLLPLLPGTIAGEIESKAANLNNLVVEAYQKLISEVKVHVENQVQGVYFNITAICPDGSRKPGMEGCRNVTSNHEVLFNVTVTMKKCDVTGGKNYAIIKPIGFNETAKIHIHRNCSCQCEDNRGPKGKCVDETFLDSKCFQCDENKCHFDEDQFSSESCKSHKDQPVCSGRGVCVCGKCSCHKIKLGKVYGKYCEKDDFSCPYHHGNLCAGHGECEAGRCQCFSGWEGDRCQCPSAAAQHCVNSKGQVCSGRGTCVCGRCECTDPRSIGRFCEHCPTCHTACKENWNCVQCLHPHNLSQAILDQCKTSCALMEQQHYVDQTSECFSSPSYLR
Experimental: as §1

[6] = target: recombinant human αvβ8 integrin (human) (UniProt P06756); assay: SPR (Biacore T200), Fab over biotinylated recombinant αvβ8 on streptavidin chip, n>=3
[7] = target: T3, recombinant mouse αvβ8 integrin; assay: as above
Experimental: as §1
(§2) To evaluate the monomeric KD of the Fab ADWA11 2.4, also referred to herein as ADWA-11 VH05-2/VK01(2.4) and ADWA11 5-2 2.4, and the parental mouse IgG, recombinant human, cynomolgus, mouse, and rat αvβ8 was immobilized on a Biacore chip and the ka and kd of the Fabs were determined as generally described herein (Table 6).

[8] = target: T4, recombinant cynomolgus monkey αvβ8 …; assay: as above
Experimental: as §1, §2

[9] = target: T5, recombinant rat αvβ8 integrin (rat, UniProt F1LZX9 31-987; A0A0G2JVU1 43-682); assay: as above
T5 construct: Recombinant protein immobilised on the Biacore chip
Experimental: as §1, §2

[10] = target: human αvβ8 integrin on U251 cells (human, UniProt P06756 31-1048); assay: flow cytometry, Fab binding to fixed U251 cells (MFI APC-A); EC50 unit inferred, axis Log10 [Ab] (nM)

T1 sequence (P05106 27-718 limits assumed, one chain of several): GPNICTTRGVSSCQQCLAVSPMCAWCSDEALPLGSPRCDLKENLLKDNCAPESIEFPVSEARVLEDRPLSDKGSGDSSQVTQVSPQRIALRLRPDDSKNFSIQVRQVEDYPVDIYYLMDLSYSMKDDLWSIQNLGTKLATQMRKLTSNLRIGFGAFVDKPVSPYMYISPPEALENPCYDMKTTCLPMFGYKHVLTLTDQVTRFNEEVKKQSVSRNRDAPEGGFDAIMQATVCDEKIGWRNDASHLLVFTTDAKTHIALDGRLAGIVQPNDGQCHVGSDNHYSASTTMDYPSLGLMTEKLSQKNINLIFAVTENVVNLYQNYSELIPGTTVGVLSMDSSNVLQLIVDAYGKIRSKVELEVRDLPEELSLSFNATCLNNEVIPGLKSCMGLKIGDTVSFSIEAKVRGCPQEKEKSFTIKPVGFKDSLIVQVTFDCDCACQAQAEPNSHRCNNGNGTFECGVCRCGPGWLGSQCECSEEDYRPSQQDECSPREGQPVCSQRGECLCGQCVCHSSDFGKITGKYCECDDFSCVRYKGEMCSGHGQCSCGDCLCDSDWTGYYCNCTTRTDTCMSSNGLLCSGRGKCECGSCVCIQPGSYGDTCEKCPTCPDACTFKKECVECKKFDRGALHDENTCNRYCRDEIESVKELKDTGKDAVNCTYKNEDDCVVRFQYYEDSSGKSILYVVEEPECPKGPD

binding result [1]: no binding | binding result [2]: no binding | Kd [3]: < 0.1 nM | Kd [4]: 0.0708 nM | Kd [5]: < 0.1 nM | Kd [6]: < 0.2 nM | koff [6]: < 3e-05 s⁻¹ | kon [6]: 161000 M⁻¹ s⁻¹ | Kd [7]: ≤ 0.2 nM | koff [7]: 1.82e-05 s⁻¹ | kon [7]: 257000 M⁻¹ s⁻¹ | Kd [8]: ≤ 0.2 nM | koff [8]: ≤ 2e-05 s⁻¹ | kon [8]: 172000 M⁻¹ s⁻¹ | Kd [9]: ≤ 0.2 nM | koff [9]: ≤ 2e-05 s⁻¹ | kon [9]: 341000 M⁻¹ s⁻¹ | EC50 [10]: 0.205 nM
B1: ADWA11 2.4 Fab (Fab, V domains shown)
VH: EVQLVESGGGLVQPGGSLRLSCAASGFNIKDYYMNWVRQAPGKGLEWVGWIDPDQGNTIYEPKFQGRFTISADTSKNSAYLQMNSLRAEDTAVYYCARRLLMDYWGQGTLVTVSS
VL: DIQMTQSPSSLSASVGDRVTITCRSTKSLSHFNGNTYLFWYQQKPGKAPKRLIYYMSSLASGVPSRFSGSGSGTDFTLTISSLQPEDFATYYCQQSLEYPFTFGGGTKVEIK
notes: Fab; also called ADWA11 5-2 2.4; ADWA11_5-2 2.4 Fab
